# In the nanobody polyreactivity screen of Harvey et al. (2022):
# Experiment: yeast display, Sf9 membrane polyspecificity reagent, FACS + sequencing; frameworks hold sequencing errors
# Method in brief: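 Galactose-induced (36–48 hours) yeast carrying a synthetic nanobody display library were exposed to 10% biotinylated, detergent-solubilized Sf9 membrane reagent at 4 °C for 1 hour. FACS followed streptavidin microbead enrichment, using low and high (top ~1%) gates for expression (anti-HA) and reagent binding (streptavidin). Colony PCR, MiSeq 2 × 250 sequencing and CDR-length filtering followed. Labels for polyreactivity reflect the gate of origin.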
row,Sequence,polyreactivity (PSR sort gate)
1,QVQLVESGVGLVQAGGSLRISCAASGSTFAAKSMGWYRQAPGKEREWVAVIRRGGSTTYADSVKGRFTISRDNAKNTVYLQMNSLKPEATAVYYCAASLYGKGDYWGQGTQVTVSS,high polyreactivity
2,QVQLVESGVGLVQAGGSLRLICAASGFILGQNAMGWYRQAPGKEREFVADISWSGDSTYYADSVKGRFTISRDNAKNTVYFQMNSLKPEDTAVYYCAADPYYNWGYYYWGQGTQVTVSS,low polyreactivity
3,QVQLVESGVGLVQAGGSLRLICAASGSIFGYNAMGWYRQAPGKERELVAAISRSGGRTYYADSVKGSFTISRDNAKNTVYLQMNSLKPEDTAVYYCAASRPGLRTPGQMGYWGQGTQVTVSS,high polyreactivity
4,QVQLVESGVGLVQAGGSLRLSCAASGFIFKRYAMGWYRQAPGKERELVATISNSGGRTYYADSVKWRFTISRDNAKNTVYLQMNSLKPEDTAVYYCAALPFWWGGYWGQGTQVTVSS,high polyreactivity
5,QVQLVESGVGLVQAGGSLRLSCAASGFIFWLYAMGWYRQAPGKERELVAGITRGGGSTYYADSVKRRFTISRDNAKNTVYLQMNSLKPEDTAVYYCAADAWSSYLDRPFDYWGQGTQVTVSS,high polyreactivity
6,QVQLVESGVGLVQAGGSLRLSCAASGFTFDDNAMGWYRQAPGKERDFVASITNSTGSTYADSVKGRFTISRDNAKNTFYLQMNSLKPEDTAVDYCAVDNISNWAVENDYWGQGTQVTVSS,low polyreactivity
7,QVQLVESGVGLVQAGGSLRLSCAASGGIFGKYVMGWSRQAPGKERELVAAITLRGGSTYYADSVKGRFTISRDNAKNTVYLQMNSLKPEDTAVYYCPRRAYQNWYNYWGQGTQVTVSS,high polyreactivity
8,QVQLVESGVGLVQAGGSLRLSCAASGIFYGYAMGWYRQAPGKERELVAAISSGGSTYYADSVKGRFTISRDNAKNTVYLQMISLNPEDTAVYYCAAGKKRPGWTFPRYYWGQGTQVTVSS,high polyreactivity
9,QVQLVESGVGLVQAGGSLRLSCAASGIIFASNGMGWYRQAPGKERELVAAISSGGSTNYADSVKGRFTISRDNAKNTVYLQMNSLKPEDTAVYYCAADRWNREYDYWGQGTQVTVSS,low polyreactivity
10,QVQLVESGVGLVQAGGSLRLSCAASGLIFFFYAMGWYRQAPGKERELVASISGGGITYYADSVKGRFTISRDNAKNTVYLQMNSLKPEDTAVIKNDYWGQGTQVTVSS,low polyreactivity
11,QVQLVESGVGLVQAGGSLRLSCAASGLIFGRNVMGWYRQAPGKERVLVAAISWSGGRTYYADSVKGRFTISRDNAKNTGYLQMNRLKPEDTAVDYCATDRSTRTYRSPYDYWGQGTQVTVSS,high polyreactivity
12,QVQLVESGVGLVQAGGSLRLSCAASGLIFYHNAMGWYRQAPGKERELVAAISRSGGRTYYADSVKGRFTISRDNAKNTVYLQMNSLKPEDSAVYYCAVYRSSDFDYWGQGTQVTVSS,high polyreactivity
13,QVQLVESGVGLVQAGGSLRLSCAASGLTFDYNAMGWYRQAPGKERELVARISRSGGTTYYADSVKGRFTISRDNAKNTVYLQMNSLKPEDTAVYYCAAERYYVGAYGYWGQGTQVTVSS,high polyreactivity
14,QVQLVESGVGLVQAGGSLRLSCAASGRIFAGYAMGWYRQAPGKERELVATISSGGSTYYADSVKGRFTISRDNAKNTVYLQMNSLKPEDTAVYYCAAEYGTRQYSSYYKLFNYWGQGTQVTVSS,low polyreactivity
15,QVQLVESGVGLVQAGGSLRLSCAASGRIFHYNAMGWYRQAPGKERELVAAISTGGSTNYADSVKGRFTISRDNAKNTVYLQMNSLKPEDTAVYYCAADRTLSYEYWGQGTQVTVSS,low polyreactivity
16,QVQLVESGVGLVQAGGSLRLSCAASGRIFTLNAMGWYRQAPGKERELFAGISRTGGSTYYADSVKVRFPISRDNAKNTVYLQMNSLKPEDTAVYYCAAAGFRRQPGAGAYYYWGQGTQVTVSS,high polyreactivity

row,Sequence,polyreactivity (PSR sort gate)
1,QVQLVESGVGLVQAGGSLRLSCAASGRNFAYYAMGWYRQAPGKERELVAAISSGGTTNYADSVKGRFTISRDNAKNTVYLQMNSLKPDDTAVYDCNADGWRRSRQYYYWGQGTQVTVSS,low polyreactivity
2,QVQLVESGVGLVQAGGSLRLSCAASGRTFFNYVMGWYRPAPGKERELVAAISRSGGSTYYADSVKGRFTLSRDNAKNTVYLQMNSLKPEDTAVYYCAADKYYEYYWGQATQVTVSS,high polyreactivity
3,QVQLVESGVGLVQAGGSLRLSCAASGRTFGYYAMGWYRLAPGKERELVAAISSGGSTNYADSVKGRFTISRDNAKNTVYLQMNSLKPEDTAVYYCAAKAWYYPGRRNYYQYYYWGQGTQVTVSS,high polyreactivity
4,QVQLVESGVGLVQAGGSLRLSCAASGRTFPPYAMGWYRQAPGKERELVAAISSDGSTYADSVKGRFTISRDNAKNTVYLQMNSLKPEDTAVYYCAVDYTYSYRKHFGHILYSWGQGTQVTVSS,low polyreactivity
5,QVQLVESGVGLVQAGGSLRLSCAASGRTFPSYNMGWYRQAPGKERELVAAITWTGGSTYYSDSVKGRFTISRDNAKNTVYLQMNSLKPEDTAVYYCATEEVYGQGNYWGQGTQVTVSS,low polyreactivity
6,QVQLVESGVGLVQAGGSLRLSCAASGRTFRANAMGWYRQAPGKERELVAAITWDGGSTYYADSVKGRFTISRDNAKNTVYLLMYSLKPEDTAVYYCNTYPYLWGQGTQVTLSS,low polyreactivity
7,QVQLVESGVGLVQAGGSLRLSCAASGRTFVYAMGWYRQAPGKERELVAAISYNGGSTYYADSVKGRFTISRDNAKNTVYLQMNSLKPEDTAVYYCAADISVGRYGDMDYWGQGTQVTVSS,low polyreactivity
8,QVQLVESGVGLVQAGGSLRLSCAASGSIFDANTMGWYRQAPGKERELVAAITGSGASTYYADSVKGRFTISRDNAKNTVYLQMNSLKPEDSAVYYCAARRYTSYYKDGWYAYYYWGQGTQVTVSS,high polyreactivity
9,QVQLVESGVGLVQAGGSLRLSCAASGSIFGRNAMGWYRQAPGKERELVARISYIGGSTYYADSVKGRFTISRDNEKNTVYLQMNSLKPEDTSVYYCAKRYGFGYKRMDYWGQGTQVTVSS,low polyreactivity
10,QVQLVESGVGLVQAGGSLRLSCAASGSIFIRNAMGWYRQAPGKERELVAAISGSGSSTYYADSVKGRFTISRDTAKNTVYLQMNILKPEDTAVYYCNTDRTHSYQYGGYDYWGQGTQVTVSS,low polyreactivity
11,QVQLVESGVGLVQAGGSLRLSCAASGSIFLTYDMGWYRPAPGKERELVAAITGSGDSTYYADSVKGRFTISRDNAKNTVYLQMNSLKPEDTAVYYCNTLVGVDFWLVDYWGQGTQVTLSS,low polyreactivity
12,QVQLVESGVGLVQAGGSLRLSCAASGSIFQSYDMGWYRQAPGKERELVAAISWSGSTTYYADSVKGRFTISRDNAKNTVYLQMNSLKPEDTAVYYCAVDSNPPDWWAVIYGFWGQGTQVTVSS,low polyreactivity
13,QVQLVESGVGLVQAGGSLRLSCAASGSIFVNYAMGWYRQAPWKERELVAAITLRGGSTFYADSVKGRFTISRDNAKNTVYLQMHSLKPEDTAVYYCAASSLRYRAYKSLFDFWGQGTQVTVSS,low polyreactivity
14,QVQLVESGVGLVQAGGSLRLSCAASGSSFTSNAMGSYRQAPGKEREFVAAISVGGGITYYADSVKGRFTISRDNAKNTVYLQMYSLKPEDTAVYYCAADGEYPHSEDFEYWGQGTQVTVSS,low polyreactivity
15,QVQLVESGVGLVQAGGSLRLSCAASGSTFFIYPMGLYRQAPGKERELVAAIRSGGTYYADSVKGRFTISRDNAKNTVYLQMNSLNPEDTAVYYCAARTRGFRYYYWGQGSQVTVSS,high polyreactivity
16,QVQLVESGVGLVQAGGSLRLSCAASGSTFGGYAMVWYRQAPGKESELVAAIYSSGGNTNYADSVKGRFTISRDNAKNTVYLQMNSLIPEDTAVYYCARDTQLPHFYGRVSEYDYWGQGTQVTVSS,low polyreactivity
